Key:
[1] = molecular target: T1, GST-RBD WT (Influenza A virus A/Brevig …, UniProt Q99AU3 1-85); assay: EMSA (fEMSA); […], pH 8.0, 1 h at room temperature; […]; settings: protein: recombinant; tags: GST; chain copies: 2; label: 5'-FAM (FITC) on both strands; blunt
[2] = molecular target: T2, His-GST-ED WT (Influenza A virus A/Brevig …, UniProt Q99AU3 86-230); assay: as above; settings: protein: recombinant; tags: N-term 10xHis-GST; chain copies: 3; label: 5'-FAM (FITC) on both strands; blunt
[3] = molecular target: T3, Udorn His-GST-ED WT (Influenza A virus A/Udorn/307/1972, UniProt P03495 86-237); assay: as above; settings: protein: recombinant; tags: N-term 10xHis-GST; label: 5'-FAM (FITC) on both strands; blunt
T3 sequence (P03495 86-237): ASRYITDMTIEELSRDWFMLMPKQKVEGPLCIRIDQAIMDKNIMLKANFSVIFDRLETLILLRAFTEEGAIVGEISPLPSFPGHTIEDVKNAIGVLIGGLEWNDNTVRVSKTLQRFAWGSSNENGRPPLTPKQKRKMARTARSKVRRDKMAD

[4] = molecular target: T4, His-GST-RBD WT (Influenza A virus A/Brevig …, UniProt Q99AU3 1-85); assay: as above; settings: protein: recombinant; tags: N-term 10xHis-GST; chain copies: 2; label: 5'-FAM (FITC) on both strands; blunt
T4 sequence (Q99AU3 1-85): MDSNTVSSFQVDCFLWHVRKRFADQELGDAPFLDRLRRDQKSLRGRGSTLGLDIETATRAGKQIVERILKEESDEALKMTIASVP

[5] = molecular target: T5, His-RBD WT (Influenza A virus A/Brevig …, UniProt Q99AU3 1-85); assay: as above; settings: protein: recombinant; tags: N-term 10xHis; chain copies: 2; label: 5'-FAM (FITC) on both strands; blunt
T5 sequence (Q99AU3 1-85): as above

[6] = molecular target: T1, GST-RBD WT; assay: fluorescence polarization; […], pH 8.0, 1 h at room temperature; […]; settings: protein: recombinant; tags: GST; chain copies: 2; label: 5'-FAM (FITC) on both strands; blunt
[7] = molecular target: T2, His-GST-ED WT; assay: as above; settings: protein: recombinant; tags: N-term 10xHis-GST; chain copies: 3; label: 5'-FAM (FITC) on both strands; blunt
[8] = molecular target: T3, Udorn His-GST-ED WT; assay: as above; settings: protein: recombinant; tags: N-term 10xHis-GST; label: 5'-FAM (FITC) on both strands; blunt
[9] = molecular target: T4, His-GST-RBD WT; assay: as above; settings: protein: recombinant; tags: N-term 10xHis-GST; chain copies: 2; label: 5'-FAM (FITC) on both strands; blunt
[10] = molecular target: T5, His-RBD WT; assay: fluorescence polarization; biphasic, first transition; […], pH 8.0, 1 h at room temperature; […]; settings: protein: recombinant; tags: N-term 10xHis; chain copies: 2; label: 5'-FAM (FITC) on both strands; blunt
[11] = molecular target: T5, His-RBD WT; assay: fluorescence polarization; biphasic, second transition; […], pH 8.0, 1 h at room temperature; […]; settings: protein: recombinant; tags: N-term 10xHis; chain copies: 2; label: 5'-FAM (FITC) on both strands; blunt
[12] = molecular target: T3, Udorn His-GST-ED WT; assay: fluorescence polarization; protein prep B, A260/280 0.85; […], pH 8.0, 1 h at room temperature; […]; settings: protein: recombinant; tags: N-term 10xHis-GST; label: 5'-FAM (FITC) on both strands; blunt

T2 sequence (Q99AU3 86-230): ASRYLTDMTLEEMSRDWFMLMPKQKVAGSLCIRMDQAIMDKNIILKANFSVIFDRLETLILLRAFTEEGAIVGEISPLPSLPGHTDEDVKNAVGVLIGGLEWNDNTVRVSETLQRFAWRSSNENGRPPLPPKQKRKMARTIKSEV
T1 sequence (Q99AU3 1-85): as the sequence (Q99AU3 1-85) above

B1: FAM-dsRNA 16 bp (dsRNA)
RNA 1: CCAUCCUCUACAGGCG
RNA 2: CGCCUGUAGAGGAUGG
Kd [1]: 100 ± 32 nM
Kd [2]: 3500 ± 800 nM
Kd [3]: 170 ± 35 nM
Kd [4]: 180 ± 42 nM
Kd [5]: 55 ± 16 nM
Kd [6]: 76 ± 5 nM
Kd [7]: 1900 ± 250 nM
Kd [8]: 180 ± 21 nM
Kd [9]: 125 ± 9 nM
Kd [10]: 83 ± 11 nM
Kd [11]: 2160 ± 460 nM
Kd [12]: 196 ± 23 nM

Source: article PMC11997982
